Data as given in paper PMC5071372, “Combining biophysical methods to analyze the disulfide bond in SH2 domain of C-terminal Src kinase” (Biophysics Reports, 2016).
“Also recorded” adds a separate entry of the source.

B1: full-length Csk: C-terminal Src kinase, full length (protein, UniProt P41240 1-450, looked up)
chain: MSAIQAAWPSGTECIAKYNFHGTAEQDLPFCKGDVLTIVAVTKDPNWYKAKNKVGREGIIPANYVQKREGVKAGTKLSLMPWFHGKITREQAERLLYPPETGLFLVRESTNYPGDYTLCVSCDGKVEHYRIMYHASKLSIDEEVYFENLMQLVEHYTSDADGLCTRLIKPKVMEGTVAAQDEFYRSGWALNMKELKLLQTIGKGEFGDVMLGDYRGNKVAVKCIKNDATAQAFLAEASVMTQLRHSNLVQLLGVIVEEKGGLYIVTEYMAKGSLVDYLRSRGRSVLGGDCLLKFSLDVCEAMEYLEGNNFVHRDLAARNVLVSEDNVAKVSDFGLTKEASSTQDTGKLPVKWTAPEALREKKFSTKSDVWSFGILLWEIYSFGRVPYPRIPLKDVVPRVEKGYKMDAPDGCPPAVYEVMKNCWHLDAAMRPSFLQLREQLEHIKTHELHL
modifications: full-length
B2: oxidized L-SH2: human Csk SH2 domain with SH3–SH2 linker, residues A73–A178, disulfide oxidized (PDB 3EAC) (protein)
chain: AGTKLSLMPWFHGKITREQAERLLYPPETGLFLVRESTNYPGDYTLCVSCDGKVEHYRIMYHASKLSIDEEVYFENLMQLVEHYTSDADGLCTRLIKPKVMEGTVA
modifications: disulfide bond C122–C164; left off: intein, end not stated, cleaved
B3: reduced L-SH2: human Csk SH2 domain with SH3–SH2 linker, residues A73–A178, reduced form (protein)
chain: B2 chain
modifications: left off: intein, end not stated, cleaved
notes: human Csk SH2 domain with SH3–SH2 linker, residues A73–A178, reduced form

What was measured:
full-length Csk = settings: ref Mills et al. [2007], cited from earlier work
Source text: Disulfide bonds are mostly found in secretory proteins and in extracellular domains of membrane proteins. Cytosolic proteins, which contain cysteine residues that are in close proximity to each other, may function as oxidation sensors; when the reductive potential of the cell fails, they oxidize and trigger cellular response mechanisms (Sevier and Kaiser [2002]). Mills et al. studied the unique disulfide bond of Csk SH2 that is absent in other known SH2 domains.

[1] = Guanidine hydrochloride-induced unfolding monitored by tryptophan fluorescence; type: physicochemical; settings: guanidine hydrochloride 0 to 6 mol/L, two-state linear extrapolation to H2O
Description: Intrinsic fluorescence of oxidized and reduced form of L-SH2 domain, as well as that of the cysteine mutants C122S and C164S L-SH2, was measured to examine the role of the disulfide bond in the stability of the Csk SH2 domain. […] The thermodynamic stability of these oxidized and reduced L-SH2 domains, as well as that of the mutants at equilibrium, were characterized by determining the free energy of unfolding by using guanidine hydrochloride-induced unfolding experiments monitored by tryptophan fluorescence (Fig. 4A). The curves were fitted using the linear extrapolation model to obtain the ∆G for unfolding in H2O (Santoro and Bolen [1988]). […]
Fluorescence titrations were performed at 25 °C in 3 mL of 50 mmol/L Tris-HCl (pH 7.5) using excitation and emission wavelengths of 288 nm and 320 nm, respectively. […] The concentrations of guanidine hydrochloride of the solutions were determined by measuring the index of refraction and by using the following equation: d/d 0 = 1 + 0.2710 W + 0.0330 W ^2 (Tanford et al. [1966]), where W is the weight fraction of guanidine hydrochloride in the solution, d is the density of the solution, and d 0 is the density of water. […] The signals were normalized to the fraction of unfolded species using the standard relation F unf = (I − I N)/(I U − I N), where N and U stand for the fluorescence intensity of the native and fully unfolded species, respectively. […]

Csk L-SH2 disulfide bond = assay: NMR-monitored reduction of oxidized SH2 by DTT; type: physicochemical, human; settings: 10 mmol/L DTT, 50 mmol/L Tris-HCl pH 7.5, 1.0 mmol/L EDTA, 0.01% NaN3, 5% D2O, 298 K, NMR peak intensity
Source text: During purification of the Csk L-SH2 domain, 50 mmol/L DTT was used to elute the protein from the chitin resin. The L-SH2 was used in reduced form, given that DTT was used to cleave L-SH2 from its intein fusion partner. Following elution of the protein from the ion exchange column, the L-SH2 became a mixture of the reduced and oxidized forms. The fully oxidized form was obtained by exposing the protein to air for several days.
Fig. 3 Comparison of the oxidized and reduced form of SH2. A Comparison of ^1H–^15N HSQC of oxidized (red) and reduced (green) SH2. B Combined chemical shift change of oxidized and reduced form SH2. The difference was calculated as ∆δ tot = [(∆δ H)^2 + (0.154∆δ N)^2]^1/2. […]
All NMR experiments were performed at 298 K on 800 MHz spectrometers equipped with triple-resonance cryoprobes. […] The combined change in chemical shift of a particular residue upon ligation with the kinase domain was calculated as ∆δ = [(∆δ H)^2 + (0.154∆δ N)^2]^1/2, where ∆δ H and ∆δ N correspond to the changes in amide proton and nitrogen chemical shift, respectively. The weight factor for ^1H and ^15N is determined from the ratio of the average variances of the amide nitrogen and proton chemical shifts observed for the 20 common amino acid residues in proteins deposited in the BioMagResBank (Mulder et al. [1999]). […]

Molecule | kinase activity upon formation of the disulfide bond in the SH2 domain (full-length Csk; full-length Csk) | kinase activity on prevention of the reduction of disulfide bond (full-length Csk; restored upon re-introduction of reducing agent) | free energy of unfolding ΔG U,W^0 [1] | t1/2 of the reduction reaction (Csk L-SH2 disulfide bond)
B1 | decreases by an order of magnitude; also recorded: reduced by an order of magnitude | tenfold reduction in kinase activity | – | –
B2 | – | – | 10.1 ± 0.382 kcal/mol | 2.6 ± 0.1 h
B3 | – | – | 6.57 ± 0.17 kcal/mol | –
